Assays:
Experiment in all cases: cell-based or functional assay
BMP-10 = biological target: T1, BMP-10 (UniProt O95393)
T1 sequence (looked up): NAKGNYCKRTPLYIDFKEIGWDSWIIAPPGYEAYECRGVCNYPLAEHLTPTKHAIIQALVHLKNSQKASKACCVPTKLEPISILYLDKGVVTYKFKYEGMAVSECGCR

BMP-9 = biological target: T2, BMP-9 (UniProt Q9UK05)
T2 sequence (looked up): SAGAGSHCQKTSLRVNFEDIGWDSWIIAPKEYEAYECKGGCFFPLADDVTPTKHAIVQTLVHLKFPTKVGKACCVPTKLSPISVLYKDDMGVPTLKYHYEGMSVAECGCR

GDF-11 = biological target: T3, GDF-11 (UniProt O95390)
T3 sequence (looked up): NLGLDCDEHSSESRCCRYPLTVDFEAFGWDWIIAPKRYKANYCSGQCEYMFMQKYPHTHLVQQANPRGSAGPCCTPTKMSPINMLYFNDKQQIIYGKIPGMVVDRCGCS

GDF-8 = biological target: T4, GDF-8 (UniProt O14793)
T4 sequence (looked up): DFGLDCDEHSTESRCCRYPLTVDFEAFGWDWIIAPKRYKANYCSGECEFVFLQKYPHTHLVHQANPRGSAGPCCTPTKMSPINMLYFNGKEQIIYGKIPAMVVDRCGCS

activin A = biological target: T5, activin A (UniProt P08476)
T5 sequence (looked up): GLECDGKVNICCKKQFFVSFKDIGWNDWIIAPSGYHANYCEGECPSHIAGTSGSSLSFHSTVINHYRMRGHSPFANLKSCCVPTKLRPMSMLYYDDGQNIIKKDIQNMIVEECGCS

activin B = biological target: T6, activin B (UniProt P09529)
T6 sequence (looked up): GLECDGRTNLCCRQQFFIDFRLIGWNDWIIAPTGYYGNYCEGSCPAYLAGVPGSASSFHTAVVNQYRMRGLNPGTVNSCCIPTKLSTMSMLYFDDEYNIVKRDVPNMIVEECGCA

Row | Substance | Average IC50, BMP-10 neutralization (HepG2 BMP-reporter) (BMP-10) [nM] | Average IC50, BMP-9 neutralization (HepG2 BMP-reporter) (BMP-9) [nM] | Avg IC50, GDF-11 neutralization (HEK293 TGFβ-reporter) (GDF-11) [nM] | Avg IC50, GDF-8 neutralization (HEK293 TGFβ-reporter) (GDF-8) [nM] | Avg IC50, activin A neutralization (HEK293 TGFβ-reporter) (activin A) [nM] | Avg IC50, activin B neutralization (HEK293 TGFβ-reporter) (activin B) [nM] | also measured
1 | P444 (wild type human ActRIIA-ECD-Fc) (Fc fusion) | 3.7 | 248 | 1.6 | 3.1 | 2.7 | 0.95 | IC50, BMP-9 neutralization (HepG2 BMP-reporter) (BMP-9): > 100 nM; IC50, GDF-8 neutralization (HEK293 TGFβ-reporter) (GDF-8): 3.06 nM
2 | P694 (hActRIIB - F58Y, 14aa linker, IgG1 FcDL) (Fc fusion) | 1.9 | 1.8 | 0.73 | 0.65 | 0.79 | 1.3 | –
3 | P701 (hActRIIB - F58K, 14aa linker, IgG1 FcDL) (Fc fusion) | 0.96 | 386 | 0.75 | 1.1 | 0.52 | 0.55 | –
4 | P709 (hActRIIB - F58Q, 39aa linker, IgG1 FcDL) (Fc fusion) | – | 58 | – | 0.29 | 0.42 | – | fold increase of inhibition potency relative to P1218 (GDF-8): 2.8 fold; fold increase of inhibition potency relative to P1218 (activin A): 2.6 fold
5 | P715 (hActRIIB - F58W, 14aa linker, IgG1 FcDL) (Fc fusion) | 2.4 | 60 | 0.9 | 0.83 | 0.9 | 1.4 | –
6 | P718 (hActRIIB - D57E + F58E, 3aa linker, IgG1 FcDL) (Fc fusion) | > 1000 | > 1000 | > 1000 | > 1000 | > 1000 | > 1000 | –
7 | P719 (hActRIIB - Q29Y + F58E, 14aa linker, IgG1 FcDL) (Fc fusion) | 1.7 | > 100 | 0.58 | 0.61 | 0.63 | 2.3 | –
8 | P757 (WT hActRIIB, 14aa linker, IgG1 FcDL) (Fc fusion) | 1.2 | 0.27 | 0.34 | 0.31 | 0.47 | 0.55 | % increase of potency relative to P75 (BMP-10): 67%; % increase of potency relative to P75 (BMP-9): 900%; % increase of potency relative to P75 (GDF-11): 124%; % increase of potency relative to P75 (GDF-8): 116%; % increase of potency relative to P75 (activin A): 389%; % increase of potency relative to P75 (activin B): 155%
9 | P761 (hActRIIB - K31Y, 14aa linker, IgG1 FcDL) (Fc fusion) | 22 | 8.7 | 8.6 | 12 | 8.4 | 41 | % increase of potency relative to P124 (BMP-9): 83%; % decrease of potency relative to P124 (GDF-11): 61%; % decrease of potency relative to P124 (GDF-8): 64%; % decrease of potency relative to P124 (activin A): 58%; % decrease of potency relative to P124 (activin B): 88%

Second part, led by results:

Row | Average IC50, BMP-10 neutralization (HepG2 BMP-reporter) (BMP-10) [nM] | Average IC50, BMP-9 neutralization (HepG2 BMP-reporter) (BMP-9) [nM] | Avg IC50, GDF-11 neutralization (HEK293 TGFβ-reporter) (GDF-11) [nM] | Avg IC50, GDF-8 neutralization (HEK293 TGFβ-reporter) (GDF-8) [nM] | Avg IC50, activin A neutralization (HEK293 TGFβ-reporter) (activin A) [nM] | Avg IC50, activin B neutralization (HEK293 TGFβ-reporter) (activin B) [nM] | Substance | also measured
10 | 2 | 2.7 | 0.76 | 0.67 | 2.3 | 1.4 | P75 (wild type human ActRIIB-ECD-Fc) (Fc fusion) | –
11 | – | 657 | – | 2.1 | 4.3 | – | P698 (hActRIIB - F58K, 3aa linker, IgG1 FcDL) (Fc fusion) | fold lower inhibition potency relative to P444 (BMP-9): 2.6 fold; fold higher inhibition potency relative to P444 (GDF-8): 1.5 fold
12 | 1.4 | 110 | 0.42 | 0.55 | 0.62 | 0.66 | P708 (hActRIIB - F58Q, 14aa linker, IgG1 FcDL) (Fc fusion) | –
13 | 2.3 | 914 | 0.54 | 0.77 | 0.97 | 2.7 | P720 (hActRIIB - D30Q + F58E, 14aa linker, IgG1 FcDL) (Fc fusion) | –
14 | 1.9 | 1.2 | 1.4 | – | 1.1 | 2.4 | P758 (hActRIIB - G27D, 14aa linker, IgG1 FcDL) (Fc fusion) | –
15 | > 1000 | > 1000 | 137 | 397 | 274 | 227 | P759 (hActRIIB - D57E, 14aa linker, IgG1 FcDL) (Fc fusion) | % increase of potency relative to P120 (GDF-11): 86%; % increase of potency relative to P120 (GDF-8): 60%; % increase of potency relative to P120 (activin A): 73%; % increase of potency relative to P120 (activin B): 77%
16 | > 1000 | > 1000 | 27 | 66 | > 1000 | > 1000 | P762 (hActRIIB - V75Q, 14aa linker, IgG1 FcDL) (Fc fusion) | –
